Measured values taken from patent US20140031294A1.

Molecular target: Concanavalin A (UniProt P02866)
Test: ConA sepharose affinity chromatography, load and eluate by RP-HPLC

With “recombinant transferrin (S32A, S415A, T613A) (from UniProt P02787 20-698) (ligand)” the Analysis 1 Eluate Recovery % (w/w) (ConA binding material) was 0.15 % (w/w).
For “recombinant transferrin (S32C, S415A, T613A) (from UniProt P02787 20-698) (ligand)”, the Analysis 1 Eluate Recovery % (w/w) (ConA binding material) was 0.25 % (w/w) and the Analysis 2 Eluate Recovery % (w/w) (ConA binding material) was 0.26 % (w/w).
